16 sequences from the nanobody polyreactivity screen of Harvey et al. (2022) can be followed below.

This data set is described as follows: yeast display, Sf9 membrane polyspecificity reagent, FACS + sequencing; frameworks hold sequencing errors. The method in brief:
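Genes from sorted yeast were amplified by colony PCR, read by MiSeq 2 × 250 sequencing and filtered on CDR length. These cells carried a synthetic nanobody library in Saccharomyces cerevisiae BJ5465 and were sorted by FACS into low and high (top ~1%) gates on anti-HA and streptavidin fluorescence. Polyreactivity is labelled according to the gate of origin.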
On to “QVQLVESGGGLVQAGGSLSLSCAASGSTFPEYVMGWYRQAPGKERELVAAITRRGGRTYYADSVKGRFTISRDNAKNTVYLQMNSLKPEDTEVYYCAAKSAVVVCMDSWGQGTQVTVSS”, for which the “polyreactivity (PSR sort gate)” value was “high polyreactivity”.

For the sequence “QVQLVESGGGLVQAGGSLSLSCAASGSTFSIYTMGWYRQAPGKERELVAVITKSGGSTYYADSVKGRFTISRDNAKNTVYLQMNSLKPEDTAVYYCAARRRGARHDYWGQGTQVTVSS”, the “polyreactivity (PSR sort gate)” value is “high polyreactivity”.

As for “QVQLVESGGGLVQAGGSLSLSCAASGSTFYHYAMGWYRQAPGKERELVAAISSSGGRTYYADSVKGRFTISRDNAKYTVYLQMNSLKPEDTAVYYCAARAKTSGSIEDYWGQGTQVTVSS”, the “polyreactivity (PSR sort gate)” value was “high polyreactivity”.

For the sequence “QVQLVESGGGLVQAGGSLSLSCAASGSTIVVNAMGWYRQAPGKERELVASISWTTCSTYYADSVKGRFTISRDNAKNTVYLQMNSLKPEDTAVYYCAADILPRYSQFDYWGQGTQVTVSS”, the “polyreactivity (PSR sort gate)” value is listed as “low polyreactivity”.

With “QVQLVESGGGLVQAGGSLSLSCAASGSTSVLNAMGWYRHAPGKERELVAALTSGVDSTYYADSVKGRFTISRDNAKNTVYLQMNSVKREDTAVYYCATVVDALDNSYKRVYLFDYWGQGTQVTVSS”, the “polyreactivity (PSR sort gate)” value is on record as “low polyreactivity”. The entry for “QVQLVESGGGLVQAGGSLSLSCAASGTFSPYAMGWYRQAPGKERELVADITSNTGRTYAASVKGRFTISRDNAKNTVYLQMNSLKPEDTAVYYCNTYGSGTHSTGYDYWGQGTQVTVSS” is “low polyreactivity”; for “QVQLVESGGGLVQAGGSLSLSCAASRFTIGLYAMGWYRQAPGKEREMVAVISSSGGSTYYADSVKGRFTISRDNAKNTVYLQMNSLKPEDTAVYYCAAEWHDYKFDVTYDYWGQGTQVTVSS” it is “low polyreactivity”. The entry for “QVQLVESGGGLVQAGGSLSLSCAATGSIITSNAMGWYRQAPGKERELVAAISWSGSRTFYADSVKGRFTISRDNEKNTVYLQMNSLKPEDTAVYYCAAGNRKWKMGYWGQGTQVTVSS” is “high polyreactivity”; for “QVQLVESGGGLVQAGGSLSLSCAATGSTFWWYAMGWYRQAPGKEREFVAAIRWSSGSTYYADSVKGRFTISRDNAKNTVYLQMNSLKPEDTAVYYCATDDTSNVYVDLDYWGQGTQVTVSS” it is “high polyreactivity”. As to “QVQLVESGGGLVQAGGSLSLSCAAYGITISIYSMGSYRQAPGKERELVAAINSGGTTYYADSVKGRFTISRDNAKNTVYLQMNSLKPEDTAVYYCADEYFAYPYEFYGGQGTQVTVSS”, the “polyreactivity (PSR sort gate)” value is on record as “high polyreactivity”. For “QVQLVESGGGLVQAGGSLSLSCADSGSNFGDYAMGWYRQAPGKERELFAAISFSDGSTYYADSVKGRFTISRDNANNTVYLQMNSLKPEDTAVYYCAKDAYWGYRWYTYDYWGQGTQVTVSS”, the “polyreactivity (PSR sort gate)” value was “low polyreactivity”. The entry for “QVQLVESGGGLVQAGGSLSLSCPASGRIFRWNAMGWYRQAPGKEREFVAAISWSGGSTYYADSVKGRFTISRDNAKNTVYLQMNSLKPEDTAVYYCNKVGYYGVGTSQEFDYWGQGTQVTVSS” is “high polyreactivity”; for “QVQLVESGGGLVQAGGSLSLSWAASGSTFETNAMGWYRQAPGKERELVAVITRGGSTYSADSVKGRFTISRDNAKNTVFLQMNRLKPEDTAVYYCNTVKYVPINYIYAMDYWGQGTQVTVSS” it is “low polyreactivity”; for “QVQLVESGGGLVQAGGSLSLTCAASVLTLTGYPMGWYRPAPGKERELVAAISSRGGSTYYADSVKGRFTISRDNAKNTVYLQMNSLKREDTAFYYCDARASSGARGLDYWGQGTQVTVSS” it is “high polyreactivity”. As to “QVQLVESGGGLVQAGGSRRLRCAASGSTFDVYAMGWYRQAPGKESELVAVINTSGTRTYYADSVKGRFTISRDNAKNTVYLQMNSLKPEDTAVYSCNAGGHLEMNYWGQGTQVTVSS”, the “polyreactivity (PSR sort gate)” value was “low polyreactivity”. For the sequence “QVQLVESGGGLVQAGGSRRLSCAASGFFFDVNAMGWYRQAPGTEREWVATISKRGGTTYYADSVKGRFTISRDNAKNTVYLQMNSLKQEDTAVYYCAARHQSLRSYRYDYWGQGTQVTVSS”, the “polyreactivity (PSR sort gate)” value was “low polyreactivity”.
